Test results reported in PMC3334620.

Legend:
Conditions in all cases: 200 nM
[1] = target: T1, Vhr2 (Saccharomyces cerevisiae) (UniProt P40041)
T1 sequence: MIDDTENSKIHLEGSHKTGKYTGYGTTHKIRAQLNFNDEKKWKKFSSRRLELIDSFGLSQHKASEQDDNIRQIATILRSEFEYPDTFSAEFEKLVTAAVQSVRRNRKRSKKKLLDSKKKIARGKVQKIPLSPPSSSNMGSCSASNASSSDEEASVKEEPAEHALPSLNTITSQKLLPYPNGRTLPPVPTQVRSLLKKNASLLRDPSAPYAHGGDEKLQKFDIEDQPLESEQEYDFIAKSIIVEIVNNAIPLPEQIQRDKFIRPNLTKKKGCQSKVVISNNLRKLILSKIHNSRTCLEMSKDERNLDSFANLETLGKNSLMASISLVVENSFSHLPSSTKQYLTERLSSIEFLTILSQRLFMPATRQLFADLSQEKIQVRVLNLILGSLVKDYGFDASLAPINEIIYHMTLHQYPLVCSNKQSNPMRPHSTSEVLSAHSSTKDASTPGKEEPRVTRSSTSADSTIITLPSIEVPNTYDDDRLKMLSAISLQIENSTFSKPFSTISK

[2] = target: T2, Ybr033w (Saccharomyces cerevisiae) (UniProt P38073)
T2 sequence: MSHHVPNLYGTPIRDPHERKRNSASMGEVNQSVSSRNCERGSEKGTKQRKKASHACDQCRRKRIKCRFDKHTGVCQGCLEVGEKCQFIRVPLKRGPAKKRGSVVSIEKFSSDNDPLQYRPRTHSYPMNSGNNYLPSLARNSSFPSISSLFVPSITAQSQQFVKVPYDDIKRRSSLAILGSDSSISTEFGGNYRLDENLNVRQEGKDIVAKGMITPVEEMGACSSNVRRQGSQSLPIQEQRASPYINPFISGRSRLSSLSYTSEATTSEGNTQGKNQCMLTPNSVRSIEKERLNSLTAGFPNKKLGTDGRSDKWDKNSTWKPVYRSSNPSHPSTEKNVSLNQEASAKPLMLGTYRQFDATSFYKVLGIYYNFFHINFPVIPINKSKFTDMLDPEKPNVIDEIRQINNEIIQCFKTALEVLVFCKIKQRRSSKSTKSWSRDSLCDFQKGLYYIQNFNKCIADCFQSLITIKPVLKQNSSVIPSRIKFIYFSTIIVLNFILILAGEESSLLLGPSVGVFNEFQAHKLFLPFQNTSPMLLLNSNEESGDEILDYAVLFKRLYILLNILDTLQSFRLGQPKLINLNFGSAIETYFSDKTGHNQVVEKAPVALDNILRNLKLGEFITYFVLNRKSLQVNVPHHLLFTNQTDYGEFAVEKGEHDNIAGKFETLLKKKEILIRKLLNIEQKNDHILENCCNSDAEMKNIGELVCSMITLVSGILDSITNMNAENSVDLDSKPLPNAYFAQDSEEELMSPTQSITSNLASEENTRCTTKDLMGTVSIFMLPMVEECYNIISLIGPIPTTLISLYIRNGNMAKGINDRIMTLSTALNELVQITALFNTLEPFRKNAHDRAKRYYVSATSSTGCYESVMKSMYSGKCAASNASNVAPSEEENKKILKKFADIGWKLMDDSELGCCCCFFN

[3] = target: T3, Vhr1 (Saccharomyces cerevisiae) (UniProt P40522)
T3 sequence: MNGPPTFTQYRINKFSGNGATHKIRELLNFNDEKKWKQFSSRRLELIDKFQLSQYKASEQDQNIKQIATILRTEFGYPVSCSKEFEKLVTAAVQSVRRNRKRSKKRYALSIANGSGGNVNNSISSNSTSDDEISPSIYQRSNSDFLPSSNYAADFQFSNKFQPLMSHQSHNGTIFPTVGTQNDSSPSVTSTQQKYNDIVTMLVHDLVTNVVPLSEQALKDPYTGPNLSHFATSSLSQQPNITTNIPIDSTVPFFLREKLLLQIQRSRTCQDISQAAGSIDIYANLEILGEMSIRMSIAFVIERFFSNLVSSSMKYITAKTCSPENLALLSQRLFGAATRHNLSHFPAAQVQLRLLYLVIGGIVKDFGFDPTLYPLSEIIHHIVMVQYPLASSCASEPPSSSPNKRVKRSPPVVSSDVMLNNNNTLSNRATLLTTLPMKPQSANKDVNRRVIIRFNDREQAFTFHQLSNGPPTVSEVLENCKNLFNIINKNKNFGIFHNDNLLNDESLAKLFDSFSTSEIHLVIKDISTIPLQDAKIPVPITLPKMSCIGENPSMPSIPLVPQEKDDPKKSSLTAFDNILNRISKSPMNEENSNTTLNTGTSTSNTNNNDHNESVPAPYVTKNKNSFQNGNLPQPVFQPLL

| Sequence | binding signal (PBM E-score (-0.5 to 0.5)) [1] | binding signal (PBM E-score (-0.5 to 0.5)) [2] | binding signal (PBM E-score (-0.5 to 0.5)) [3] |
| --- | --- | --- | --- |
| AATGACTC (double strand) [8-mer AATGACTC] | 0.495 | – | – |
| AATGTTCC (double strand) [8-mer AATGTTCC] | – | 0.471 | – |
| AATTATCC (double strand) [8-mer AATTATCC] | – | 0.471 | – |
| AGTGACTC (double strand) [8-mer AGTGACTC] | – | – | 0.481 |
| ATGACTAA (double strand) [8-mer ATGACTAA] | 0.494 | – | – |
| ATGACTAC (double strand) [8-mer ATGACTAC] | 0.494 | – | – |
| ATGACTCA (double strand) [8-mer ATGACTCA] | 0.499 | – | 0.495 |
| ATGACTCC (double strand) [8-mer ATGACTCC] | 0.493 | – | 0.494 |
| ATGAGTCA (double strand) [8-mer ATGAGTCA] | 0.498 | – | 0.492 |
| ATTAATCC (double strand) [8-mer ATTAATCC] | – | 0.486 | – |
| ATTATTCC (double strand) [8-mer ATTATTCC] | – | 0.479 | – |
| ATTGTTCC (double strand) [8-mer ATTGTTCC] | – | 0.484 | – |
| ATTTATCC (double strand) [8-mer ATTTATCC] | – | 0.485 | – |
| ATTTTCCG (double strand) [8-mer ATTTTCCG] | – | 0.472 | – |
| ATTTTTCC (double strand) [8-mer ATTTTTCC] | – | 0.486 | – |
| CATGACTC (double strand) [8-mer CATGACTC] | 0.494 | – | 0.485 |
| CGGAAAAA (double strand) [8-mer CGGAAAAA] | – | 0.495 | – |

| Sequence | binding signal (PBM E-score (-0.5 to 0.5)) [1] | binding signal (PBM E-score (-0.5 to 0.5)) [2] | binding signal (PBM E-score (-0.5 to 0.5)) [3] |
| --- | --- | --- | --- |
| CGGAACAA (double strand) [8-mer CGGAACAA] | – | 0.491 | – |
| CGGAGTCA (double strand) [8-mer CGGAGTCA] | – | – | 0.485 |
| CGGATAAA (double strand) [8-mer CGGATAAA] | – | 0.488 | – |
| CGGATCAA (double strand) [8-mer CGGATCAA] | – | 0.472 | – |
| CGGATTAA (double strand) [8-mer CGGATTAA] | – | 0.482 | – |
| CTGACTCA (double strand) [8-mer CTGACTCA] | 0.494 | – | 0.49 |
| CTGAGTCA (double strand) [8-mer CTGAGTCA] | 0.496 | – | 0.489 |
| GAGTCACA (double strand) [8-mer GAGTCACA] | – | – | 0.487 |
| GAGTCACC (double strand) [8-mer GAGTCACC] | 0.496 | – | 0.491 |
| GAGTCATA (double strand) [8-mer GAGTCATA] | 0.495 | – | 0.484 |
| GAGTCATC (double strand) [8-mer GAGTCATC] | 0.497 | – | 0.492 |
| GATGACTA (double strand) [8-mer GATGACTA] | 0.495 | – | – |
| GGAAAAAA (double strand) [8-mer GGAAAAAA] | – | 0.472 | – |
| GGAAAAAC (double strand) [8-mer GGAAAAAC] | – | 0.476 | – |
| GGAGTCAC (double strand) [8-mer GGAGTCAC] | – | – | 0.485 |
| GTGACTCA (double strand) [8-mer GTGACTCA] | 0.498 | – | 0.496 |
| GTGAGTCA (double strand) [8-mer GTGAGTCA] | 0.498 | – | 0.494 |
